Two substances from paper PMC10215022 can be followed below.

Experiment [1] addresses SARS-CoV-2 Omicron (B.1.1.529) spike protein, plate-bound (MSD V-PLEX) (SARS-CoV-2 Omicron (B.1.1.529)) (UniProt P0DTC2).
For experiment [2], the target named is SARS-CoV-2 Omicron (B.1.1.529) spike protein RBD, His-tagged (SARS-CoV-2 Omicron (B.1.1.529)) (UniProt P0DTC2). Briefly: SPR. For orientation: SPR reads the build-up and loss of mass on a sensor chip optically.

Broadly, the IC50 is the point on the concentration scale where inhibition reaches its midpoint. A lower IC50 goes with higher potency. In experiment [1], “REGEN-COV mAb cocktail (casirivimab and imdevimab at 1:1 molar ratio)” came in with an IC50 of 13 nM. This counts as double-digit nanomolar.

In general, Kd refers to the constant that tells how readily two partners part at equilibrium. In experiment [2], casirivimab (REGN10933) (antibody) gave a dissociation constant (Kd) of 1200 nM.
